Series [1] deals with T1, matrix of insoluble elastin prepared from chicken aortic tissue (chicken, UniProt P07916 25-750).
T1 construct: mature; Insoluble cross-linked tissue matrix, not a defined soluble protein; also called chicken elastin; chicken elastin matrix
T1 sequence (looked up): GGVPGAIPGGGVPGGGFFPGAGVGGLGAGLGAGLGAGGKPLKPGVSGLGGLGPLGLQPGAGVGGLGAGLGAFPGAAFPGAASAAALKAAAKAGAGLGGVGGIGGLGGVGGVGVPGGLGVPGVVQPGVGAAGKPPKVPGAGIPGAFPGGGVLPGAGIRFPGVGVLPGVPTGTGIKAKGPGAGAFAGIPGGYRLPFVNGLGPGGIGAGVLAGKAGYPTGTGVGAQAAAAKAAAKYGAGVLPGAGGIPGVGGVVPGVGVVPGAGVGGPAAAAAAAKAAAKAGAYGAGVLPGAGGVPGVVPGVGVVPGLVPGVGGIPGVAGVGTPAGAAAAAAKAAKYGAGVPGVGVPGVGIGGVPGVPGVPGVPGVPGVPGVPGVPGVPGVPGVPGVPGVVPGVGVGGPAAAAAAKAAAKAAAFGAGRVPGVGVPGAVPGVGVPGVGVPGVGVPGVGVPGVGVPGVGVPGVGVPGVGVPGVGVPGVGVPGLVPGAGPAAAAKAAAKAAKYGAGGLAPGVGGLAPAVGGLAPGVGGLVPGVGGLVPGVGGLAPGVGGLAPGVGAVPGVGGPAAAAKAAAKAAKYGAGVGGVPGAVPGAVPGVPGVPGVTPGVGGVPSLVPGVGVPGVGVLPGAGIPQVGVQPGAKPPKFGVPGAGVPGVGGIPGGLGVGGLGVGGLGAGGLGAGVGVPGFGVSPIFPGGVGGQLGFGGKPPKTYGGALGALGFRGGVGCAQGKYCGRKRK
Kind of series: estimate from bound radiolabelled MFU-1, assuming a 6 nm cross-sectional diameter. The method, then:
A matrix of insoluble elastin was prepared from chicken aortic tissue by a cyanogen bromide extraction method. This insoluble, non-human elastin matrix was incubated for 16 hours at 37° in phosphate-buffered saline, at pH 7.4, in the presence of radioactively labeled human MFU-1 prepared as described above. The tissue was then washed extensively with phosphate-buffered saline at pH 7.4.
Estimation of surface coverage assumed a cross-sectional diameter of the human MFU-1 of 6 nm. It was estimated that about 1–3 µg of human MFU-1 per mg chicken elastin matrix remained firmly associated with the insoluble matrix of chicken elastin.

Series [2] concerns the molecule itself. In words: coacervation of MFU-2 in solution; self-association.

B1: Minimal Functional Unit-1 (MFU-1) of human elastin (other)
chain: GAGGFPGFGVGVGGIPGVAGVPGVGGVPGVGGVPGVGISPEAQAAAAAKAAKYGVGTPAAAAAKAAAKAAQFGLVPGVGVAPGVGVAPGVGVAPGVGLAPGVGVAPGVGVAPGVGVAPAIGPGGVA
modifications: radioactively labeled valine and glycine (only in the chicken elastin experiments of Example 4)
notes: also called human elastin MFU-1; Fraction 1
On to B1, for which, in series [1], the “surface coverage of the chicken elastin matrix” value was at most 200 fold.

B2: MFU-2 of human elastin (other)
chain: FPGFGVGVGGIPGVAGVPGVGGVPGVGGVPGVGISPEAQAAAAAKAAKYGVGTPAAAAAKAAAKAAQFGLVPGVGVAPGVGVAPGVGVAPGVGLAPGVGVAPGVGVAPGVGVAPAIGPEAQAAAAAKAAKYGVGTPAAAAAKAAAKAAQFGLVPGVGVAPGVGVAPGVGVAPGVGLAPGVGVAPGVGVAPGVGVAPAIGP
notes: Tandem duplicate of MFU-1, expressed with techniques similar to those for MFU-1
For the molecule B2, in series [2], the binding result is on record as “binds”.

These data come from patent US6489446 (HSC RESEARCH AND DEVELOPMENT LIMITED PARTNERSHIP, dated 2002).
